In patent US20170189519A1:

Experiments:
[1] = target: H1-mini2-cluster1+5+6-GCN4 without leader sequence and with FLAG-thrombin-foldon-HIS; experiment: ELISA, coated CR6261, P. pastoris culture medium; average of the parental
[2] = target: H1-mini2-cluster1+5+6-GCN4 without leader sequence and with FLAG-thrombin-foldon-HIS; experiment: ELISA, coated CR6261, HEK293F culture medium; average of the parental
[3] = target: H1-mini2-cluster1+5+6-GCN4 without leader sequence and with FLAG-thrombin-foldon-HIS; experiment: ELISA, coated CR6261, HEK293F culture medium; the reference itself
[4] = target: H1-mini2-cluster1+5+6-GCN4 without leader sequence and with FLAG-thrombin-foldon-HIS; experiment: ELISA, coated CR6261, P. pastoris culture medium; the reference itself

Question: Which results are given for CR6261 (antibody)?
Answer: CR6261 binding signal [1]: 238000; ratio of CR6261 binding signal to HTRF signal [1]: 5.94; CR6261 binding signal [2]: 5.66e+06; ratio of CR6261 binding signal to HTRF signal [2]: 17.4; fold increase of ratio over parental SEQ ID NO: 6 [3]: 1 fold; fold increase of ratio over parental SEQ ID NO: 6 [4]: 1 fold
